Results reported in PMC8800120.
Where “and” joins values, the source holds several entries; their conditions need not be identical. Equal values may be shown once.

Legend:
Assay in all cases: EMSA
[1] = test system: phospho-S129 alpha-synuclein (pSyn) (human); details: EMSA: 11 mM Tris, 1 mM EDTA, 50 mM NaCl, pH 8.0-8.5, 20 min on ice then 30 min RT, mutants/deltaNAC: 4 ul protein in 20 mM Tris-HCl, 200 mM NaCl in 10 ul, 0.5% …
[2] = test system: alpha-synuclein (aSyn) (human); details: EMSA: 11 mM Tris, 1 mM EDTA, 50 mM NaCl, pH 8.0-8.5, 20 min on ice then 30 min RT, mutants/deltaNAC: 4 ul protein in 20 mM Tris-HCl, 200 mM NaCl in 10 ul, 0.5% …
[3] = test system: deltaNAC aSyn (human); details: 1.4 uM protein, 1.3 nM DNA; EMSA: 11 mM Tris, 1 mM EDTA, 50 mM NaCl, pH 8.0-8.5, 20 min on ice then 30 min RT; mutants/deltaNAC: 4 ul protein in 20 mM Tris-HCl, 200 mM NaCl in 10 ul, 0.5% …
[4] = test system: aSyn A30P (human); details: 1.4 uM protein, 1.3 nM DNA; EMSA: 11 mM Tris, 1 mM EDTA, 50 mM NaCl, pH 8.0-8.5, 20 min on ice then 30 min RT; mutants/deltaNAC: 4 ul protein in 20 mM Tris-HCl, 200 mM NaCl in 10 ul, 0.5% …
[5] = test system: gamma-synuclein (gSyn) (human); details: up to 57 uM protein, 4 nM DNA; EMSA: 11 mM Tris, 1 mM EDTA, 50 mM NaCl, pH 8.0-8.5, 20 min on ice then 30 min RT; mutants/deltaNAC: 4 ul protein in 20 mM Tris-HCl, 200 mM NaCl in 10 ul, 0.5% …
[6] = test system: aSyn E46K (human); details: 1.4 uM protein, 1.3 nM DNA; EMSA: 11 mM Tris, 1 mM EDTA, 50 mM NaCl, pH 8.0-8.5, 20 min on ice then 30 min RT; mutants/deltaNAC: 4 ul protein in 20 mM Tris-HCl, 200 mM NaCl in 10 ul, 0.5% …
[7] = test system: beta-synuclein (bSyn) (human); details: up to 57 uM protein, 4 nM DNA; EMSA: 11 mM Tris, 1 mM EDTA, 50 mM NaCl, pH 8.0-8.5, 20 min on ice then 30 min RT; mutants/deltaNAC: 4 ul protein in 20 mM Tris-HCl, 200 mM NaCl in 10 ul, 0.5% …
[8] = test system: aSyn A53T (human); details: 1.4 uM protein, 1.3 nM DNA; EMSA: 11 mM Tris, 1 mM EDTA, 50 mM NaCl, pH 8.0-8.5, 20 min on ice then 30 min RT; mutants/deltaNAC: 4 ul protein in 20 mM Tris-HCl, 200 mM NaCl in 10 ul, 0.5% …

400 bp DNA
binding signal (fraction shifted) [1]: 0.927 | binding signal (fraction shifted) [2]: 0.947

300 bp DNA (length series)
binding signal (fraction shifted) [1]: 0.617 | binding signal (fraction shifted) [2]: 0.803

300 bp linear DNA, blunt
binding signal (fraction shifted) [1]: 0.607 | binding signal (fraction shifted) [2]: 0.857

300 bp DNA, 56% GC
binding signal (fraction shifted) ([2]; 57 uM aSyn): 0.81

200 bp DNA
binding signal (fraction shifted) [1]: 0.12 | binding signal (fraction shifted) [2]: 0.74

300 bp linear DNA (ends not specified for the experiment)
binding signal (fraction shifted) [3]: 1 | K half ([1]; 0.1 nM DNA): 27.3 µM | K half ([1]; 6 nM DNA): 32.5 µM | binding signal (fraction shifted) [4]: 0.27 | binding signal (fraction shifted) [5]: 0 | binding signal (fraction shifted) [6]: 0.975 | binding signal (fraction shifted) [7]: 0 | K half ([2]; 0.1 nM DNA): 273 nM | K half ([2]; 6 nM DNA): 5850 nM | binding signal (fraction shifted) ([2]; 1.4 uM protein, 1.3 nM DNA, deltaNAC series): 0.597 | binding signal (fraction shifted) ([2]; 1.4 uM protein, 1.3 nM DNA, point mutant series): 0.55 | binding signal (fraction shifted) ([2]; 57 uM protein, 4 nM DNA, paralog series): 0.199 | binding signal (fraction shifted) [2]: 1 and 0.997 | binding signal (fraction shifted) [8]: 0.379

300 bp DNA, 67% GC
binding signal (fraction shifted) ([2]; 57 uM aSyn): 0.693

500 bp DNA
binding signal (fraction shifted) [1]: 1 | binding signal (fraction shifted) [2]: 1

304 bp circular DNA (made with HMGB1)
K half ([2]; covalently closed circle): 1610 nM

300 bp linear DNA with 4-base 5' overhangs
binding signal (fraction shifted) [1]: 0.573 | binding signal (fraction shifted) [2]: 0.917

304 bp circular DNA topoisomer (made with HMGB1)
K half ([2]; covalently closed circle, topoisomer): 1640 nM

125 bp DNA
binding signal (fraction shifted) [1]: 0.007 | binding signal (fraction shifted) [2]: 0.327
